The results in this text go back to patent US20230062712A1 (SILVERBACK THERAPEUTICS, published 2023).

The target in assay [1] is T1, rat ASGR1 on CHO-S cells (rat, UniProt P02706 1-284).
T1 construct: whole, on cells
T1 sequence (looked up): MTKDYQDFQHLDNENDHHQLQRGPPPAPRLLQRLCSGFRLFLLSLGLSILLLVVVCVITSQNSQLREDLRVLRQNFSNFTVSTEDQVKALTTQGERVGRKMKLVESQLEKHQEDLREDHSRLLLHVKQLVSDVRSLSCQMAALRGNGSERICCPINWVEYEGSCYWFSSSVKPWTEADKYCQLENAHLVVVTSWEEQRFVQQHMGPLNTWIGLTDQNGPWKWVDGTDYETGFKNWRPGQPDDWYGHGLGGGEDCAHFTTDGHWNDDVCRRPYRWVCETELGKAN
Briefly: flow cytometry (Guava) on CHO-S cells transfected with rat ASGR1. The procedure: Anti-human ASGR1 antibodies of this disclosure were examined for cross-reactivity with Cynomolgus macaque and rat ASGR1. Briefly, sequence encoding Cynomolgus macaque or rat ASGR1 was transiently transfected into CHO-S cells. Transfected cells were before performing cell binding assay. A total of about 1.5×10⁴ transfected cells/well were added to 96-well V-bottom assay plate, incubated at 37° C., 5% CO2 for 48-72 hours, and then washed with culture medium before adding 100 μl of each ASGR1 antibody at different concentrations starting from 100 nM and 3-fold dilutions to a total of eight wells. The cells with antibody were incubated for 40 minutes at 4° C., then washed three times with 200 μl of fresh culture medium. To each well was added 50 μl PE conjugated goat anti-human Fc (SouthernBiotech) at 1:200 dilution in culture medium and then incubated at 4° C. for 20 minutes. After washing the plate once, the treated cells were resuspended in 200 μl culture medium and then the stained cells were analyzed on GUAVA® using Incyte software.
(Flow cytometry measures light scatter and fluorescence of single cells or particles in a stream.)

In assay [2] the target is T2, His-tagged rat C-type lectin domain family 10 member A (CLEC10A) extracellular domain (rat) (UniProt P49301).
T2 sequence (looked up): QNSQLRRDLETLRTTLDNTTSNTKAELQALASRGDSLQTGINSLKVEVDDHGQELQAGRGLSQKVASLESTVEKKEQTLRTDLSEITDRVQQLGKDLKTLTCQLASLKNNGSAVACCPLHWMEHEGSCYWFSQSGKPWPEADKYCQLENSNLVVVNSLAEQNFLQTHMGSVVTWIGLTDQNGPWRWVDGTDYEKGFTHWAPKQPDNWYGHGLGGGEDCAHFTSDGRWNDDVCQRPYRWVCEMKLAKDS
Briefly: Octet, His-tagged rat CLEC10A ECD on Penta-His sensors, antibody at 25 µg/mL. (In general: Biolayer interferometry detects binding as a change in optical thickness at a sensor tip.)

The target of assay [3] is T2, His-tagged rat C-type lectin domain family 10 member A (CLEC10A) extracellular domain (rat). As to the kind of experiment: Octet, biotinylated mAb on streptavidin sensors, monomeric rat CLEC10A ECD from 200 nM in 3x dilutions, bivalent binding model.

B1: hzL4L-7 (antibody, V domains shown)
VH: QVQLQESGPGLVKPSQTLSLTCTVSGYSISSDYAWNWIRQHPGKGLEWIGYISYSGSTRYNPSLKSRVTITRDTSKNQFSLKLSSVTAADTAVYYCARRYRYDEGYGMDYWGQGTTVTVSS
VL: DIQMTQSPSSLSASVGDRVTITCRASENIYSNLAWYQQKPGKAPKLLIYAATNLADGVPSRFSGSGSGTDFTLTISSLQPEDFATYYCQHFWGTPPWTFGGGTKVEIK
notes: IgG1 and kappa constant regions
Consider B1, for which the binding result in assay [1] was “no binding (tested: starting from 100 nM)”.

B2: ASGR1 mAb-B (antibody, from another filing, V domains shown)
VH: EVQLVESGGGLVKPGGSLRLSCAASGFTFSSYSMNWVRQAPGKGLEWVSSISGSSSYIYYADSVKGRFTISRDNAKNSLYLQMNSLRAEDTAVYFCARGGSRGFDPWGQGTLVTVSS
VL: DIQMTQSPSSLSASVGDRVTITCRASQSITSYLNWYQQKPGKAPKLLIYTASSLQSGVPSRFSGSGSGTDFTLTISSLQPEDFATYYCQQSHSFPFTFGPGTKVDIK
In assay [2], B2 returned a Response (nm) of 0.598 nm. In assay [3], this molecule had a Kd of 28.1 nM.

B3: hzH8K-1 (antibody, V domains shown)
VH: QVQLQESGPGLVKPSQTLSLTCTVSGGSISSDYAWNWIRQHPGKGLEWIGYRSYRGSTSYNPSLKSRVTISVDTSKNQFSLKLSSVTAADTAVYYCARRGYYGSSSHWYFDVWGQGTTVTVSS
VL: DIQMTQSPSSLSASVGDRVTITCRASENIYSYLAWYQQKPGKAPKLLIYNAKTLAEGVPSRFSGSGSGTDFTLTISSLQPEDFATYYCQHHYGTPLTFGGGTKVEIK
notes: as for B1
B3: in assay [1], the binding result was “no binding (tested: starting from 100 nM)”.
